According to US20180215829A1 (CRESCENDO BIOLOGICS, published 2018):
Where two headings read alike, the source gives them in different places.

Tests used:
[1] = target: T1, recombinant human IL-17RA Fc fusion protein (R&D Systems 177-IR-100) (human, UniProt Q96F46 33-320); experiment: BIAcore T200 single-cycle kinetics, IL-17RA-Fc captured on protein G chip, VH as analyte
T1 construct: Bought protein; not shown: Fc domain of human IgG1
T1 sequence: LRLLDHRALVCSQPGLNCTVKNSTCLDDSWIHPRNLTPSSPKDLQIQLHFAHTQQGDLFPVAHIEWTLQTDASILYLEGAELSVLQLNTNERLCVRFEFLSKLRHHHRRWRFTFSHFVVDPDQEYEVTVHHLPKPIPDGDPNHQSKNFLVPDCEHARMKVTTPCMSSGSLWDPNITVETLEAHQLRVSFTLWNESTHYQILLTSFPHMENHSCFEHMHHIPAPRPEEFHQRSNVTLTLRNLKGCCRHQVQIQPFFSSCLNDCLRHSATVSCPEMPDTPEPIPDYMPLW
Method: (§1) Binding kinetics of anti-IL-17RA VH antibodies were measured on a BIAcore® T200 instrument. For IL-17RA, first a protein G chip was prepared by diluting protein G to 20 ug/ml in acetate buffer, pH 4 (BIAcore®, cat# BR-100-49) and then coupled 1200 RU to a CM5 Series S chip using amine coupling chemistry. This surface was then used to capture IL-17RA Fc fusion protein from solution: IL-17RA at 10 ug/ml in HBS injected for 10 seconds at 30 ul/min flow rate would capture approximately 100-150 RU of IL-17RA onto the protein G surface.
(§2) Binding kinetics of anti-IL-17RA VH antibodies were determined by single-cycle kinetics. VH antibodies were prepared in dilution series (typically 1:3 dilution series starting with 100 nM VH at the highest concentration), and then injected over the antigen coated surfaces and also a blank surface, starting with the lowest concentration of VH and then working progressively up to the highest concentration. VH binding kinetics were then determined from the (blank subtracted) sensorgram traces using 1:1 binding models and BIAevaluation software.

[2] = target: T1, recombinant human IL-17RA Fc fusion …; experiment: receptor/ligand biochemical inhibition ELISA: VH competes with 1 nM IL-17A for coated IL-17RA-Fc
Method: VH, both purified and crude periplasmic extracts, were also tested for their ability to inhibit the interaction of IL-17A with recombinant IL-17RA-Fc. […] Following washing of excess coating antigen, as described above, the wells of the plate were incubated with 3% Marvel/PBS to block non-specific protein interactions. VH preparations, crude periplasmic extracts or purified VH, or suitable controls, were prepared with 1 nM recombinant IL-17A (Peprotech, cat# AF-200-17) in 3% skimmed milk powder/PBS solution in polypropylene plates or tubes. The mixture was then transferred to the assay plate and incubated for 1 hour at room temperature. Excess protein was removed by washing and bound IL-17A was detected by incubation with biotinylated anti-IL-17A Mab (R & D Systems, cat BAF317) followed by the addition of neutravidin-HRP (Pierce, cat#31030) and TMB substrate (Sigma, cat# T0440). The TMB reaction was stopped by addition of 0.5M H₂SO₄ and absorbances were measured at 450 nm in a plate reader.

[3] = target: T2, human IL-17RA on HT1080 cells (human, UniProt Q96F46 33-866); experiment: cell-based or functional assay
T2 sequence: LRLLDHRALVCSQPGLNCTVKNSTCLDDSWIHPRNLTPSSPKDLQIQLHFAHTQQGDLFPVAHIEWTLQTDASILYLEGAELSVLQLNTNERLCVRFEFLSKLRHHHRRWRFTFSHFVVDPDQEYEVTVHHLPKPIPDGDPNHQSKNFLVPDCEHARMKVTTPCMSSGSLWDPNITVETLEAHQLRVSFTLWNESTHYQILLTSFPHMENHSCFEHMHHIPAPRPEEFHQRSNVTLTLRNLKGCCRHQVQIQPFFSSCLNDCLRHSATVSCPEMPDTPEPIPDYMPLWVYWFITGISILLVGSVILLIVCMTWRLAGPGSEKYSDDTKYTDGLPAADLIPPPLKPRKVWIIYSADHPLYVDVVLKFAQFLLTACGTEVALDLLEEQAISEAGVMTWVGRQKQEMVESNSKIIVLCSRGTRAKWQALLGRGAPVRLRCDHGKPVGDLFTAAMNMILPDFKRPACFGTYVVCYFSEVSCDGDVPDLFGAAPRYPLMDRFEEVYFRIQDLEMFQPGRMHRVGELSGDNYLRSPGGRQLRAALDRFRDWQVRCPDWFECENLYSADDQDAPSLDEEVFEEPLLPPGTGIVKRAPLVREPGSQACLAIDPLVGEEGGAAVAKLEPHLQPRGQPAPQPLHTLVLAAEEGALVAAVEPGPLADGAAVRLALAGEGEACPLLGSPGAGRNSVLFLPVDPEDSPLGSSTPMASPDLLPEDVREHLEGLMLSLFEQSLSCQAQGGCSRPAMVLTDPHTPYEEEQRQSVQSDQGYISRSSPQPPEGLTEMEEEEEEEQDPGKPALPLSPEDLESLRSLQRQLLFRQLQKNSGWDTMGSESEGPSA

[4] = target: T1, recombinant human IL-17RA Fc fusion …; experiment: BIAcore T200 single-cycle kinetics, IL-17RA-Fc captured on protein G chip, VH as analyte; remark: listed apart in the source
Method: as §1, §2

Kd [1]: 7 nM
koff [1]: 0.00263 s⁻¹
kon [1]: 368000 M⁻¹ s⁻¹
IC50 [2]: 3.7 nM
Cell assay IC50 [3]: 280 nM
Kd [4]: 7 nM
B1: VH clone 2.1 (VHH)
VHH: QVQLVQSGAEVKKPGASVKVSCKASGYPFTSYDINWVRQATGQSLEWMGWMNPNSGDTVYAQKFQGRVTMTRNTSISTAYMELSSLRSEDTAVYFCARGRRDDWKNNYWGQGTLVTVSS
notes: Human VH single domain antibody, no light chain; Parent clone of family 2; also called VH 2.1
